From US20140302035A1 (MERRIMACK PHARMACEUTICALS, published 2014)

Columns and labels:
cMet-his [1] = biological target: T1, cMet-his (Homo sapiens (Human), UniProt P08581 25-933); assay: BLI (ForteBio Octet), antibody loaded on Protein A tips, recombinant polyhistidine-tagged c-Met in solution, 1:1 model
T1 construct: also called his tagged cMET; Recombinant polyhistidine-tagged c-Met
Description: (§1) For Octet analysis, all reagents and samples are brought to room temperature. Protein A sensor tips (ForteBio, #18-5010) are hydrated for 10 minutes in 1×PBS. Assay steps include: 1-2 minutes of equilibration in 1×PBS, 4 minutes of antibody loading (concentration of 50 μg/ml in 1×PBS), 1-2 minutes of baseline stabilization, 4 minutes of antibody:antigen association, and 4 minutes of antibody:antigen dissociation. 1×PBS is used as the matrix throughout. Data are analyzed with Octet Data Analysis software, processed, and fit to a 1:1 binding model to determine kinetic parameters (Kd, kₒₙ and kdiss).
Table A-4 describes approximate c-Met binding affinity and dissociation rate as determined for Ab#5 and Ab#7.

[2] = biological target: T2, Human EpCAM-Fc-his tagged (human); assay: BLI (ForteBio Octet), antibody loaded on Protein A tips, recombinant polyhistidine-tagged EpCAM-Fc in solution, 1:1 model
T2 construct: also called Recombinant polyhistidine-tagged EpCAM-Fc; recombinant EpCAM
Description: as §1
Table A-2 describes approximate EpCAM binding affinity and dissociation rate as determined for Ab#1, Ab#2, Ab#3, Ab#4, Ab#5, Ab#6, Ab#7, Ab#8, Ab#9, Ab#10, Ab#11, Ab#12, and Ab#13.

[3] = biological target: T2, Human EpCAM-Fc-his tagged; assay: BLI (ForteBio Octet), repeat analysis, antibody on Protein A tips, recombinant polyhistidine-tagged EpCAM-Fc in solution, 1:1 model
Description: as §1
Table A-3 describes a repeat analysis for Ab#5, Ab#7, and Ab#13. For the repeat experiment, Kd and kdiss values for Ab#5, Ab#7, and Ab#13 are substantially equivalent to those determined for Ab#5, Ab#7, and Ab#13 in the initial experiment.

cMet-his [4] = biological target: T1, cMet-his; assay: BLI (ForteBio Octet), antibody loaded on Protein A tips, his tagged cMET in solution, 1:1 model
Description: Protocol: All reagents are equilibrated and samples are brought to room temperature. Protein A sensor tips (Fortebio, #18-5010) are hydrated for 10 min in 1×PBS. Kinetic assays are run using the Octet software and procedure per manufacturer's instruction. Assay steps typically include: 1-2 min of equilibration in 1×PBS, 4 min of antibody loading (conc: 50 μg/mL in 1×PBS), 1-2 min of baseline stabilization, 4 min of antibody:antigen association, and 4 min of antibody:antigen dissociation. 1×PBS is used as the matrix throughout. Data are analyzed with Octet Data Analysis software, processed, and fit to the curve using 1:1 binding model to determine kinetic parameters (Kₐ, Kₒₙ and Koff)

T2 sequence (chain, as listed by the source): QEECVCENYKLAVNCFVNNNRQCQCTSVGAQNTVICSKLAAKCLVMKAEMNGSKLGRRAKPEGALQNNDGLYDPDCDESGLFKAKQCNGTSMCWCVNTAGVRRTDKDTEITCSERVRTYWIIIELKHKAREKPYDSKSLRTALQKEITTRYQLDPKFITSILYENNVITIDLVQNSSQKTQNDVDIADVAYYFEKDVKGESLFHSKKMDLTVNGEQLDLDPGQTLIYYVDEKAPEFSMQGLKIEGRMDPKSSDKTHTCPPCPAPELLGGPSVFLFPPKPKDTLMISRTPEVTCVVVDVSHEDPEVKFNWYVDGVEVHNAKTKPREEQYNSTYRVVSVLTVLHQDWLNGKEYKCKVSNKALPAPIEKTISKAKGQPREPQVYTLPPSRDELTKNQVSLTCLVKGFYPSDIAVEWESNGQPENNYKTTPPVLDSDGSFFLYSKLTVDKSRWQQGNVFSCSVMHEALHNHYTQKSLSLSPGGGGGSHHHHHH

Kd (cMet-his [1]) [nM] | koff (cMet-his [1]) [s⁻¹] | Kd [2] [nM] | koff [2] [s⁻¹] | Kd [3] [nM] | koff [3] [s⁻¹] | Kd (cMet-his [4]) [nM] | Binder
3.4 | 0.000588 | 3.57 | 0.000346 | 2.67 | 0.000194 |  | Ab#5 (bispecific antibody, human IgG1, kappa, Anti-c-Met Fab / tandem Fc / anti-EpCAM scFv TFcBA; also called Antibody #5) heavy: QLQLQESGPGLVKPSETLSLTCTVSGGSISSSVYYWSWIRQPPGKGLEWIGVIYPSGNTYYSPSLKSRVTISVDTSKNQFSLKLSSVTAADTAVYYCARTIYDLFDIWGQGTMVTVSSASTKGPSVFPLAPSSKSTSGGTAALGCLVKDYFPEPVTVSWNSGALTSGVHTFPAVLQSSGLYSLSSVVTVPSSSLGTQTYICNVNHKPSNTKVDKKVEPKSCDKTHTCPSCPAPEFLGGPSVFLFPPKPKDTLMISRTPEVTCVVVDVSQEDPEVQFNWYVDGVEVHNAKTKPREEQFNSKYRVVSVLTVLHQDWLNGKEYKCKVSNKGLPSSIEKTISKAKGQPREPQVYTLPPSREEMTKNQVSLSCAVKGFYPSDIAVEWESNGQPENNYKTTPPVLDSDGSFFLVSKLTVDKSRWQQGNVFSCSVMHEALHNHYTQKSLSLSKSCDKTGGGGSGGGGSGGGGSGGGGSGGGGSGGGGSGGGGSGGGGSCPSCPAPEFLGGPSVFLFPPKPKDTLMISRTPEVTCVVVDVSQEDPEVQFNWYVDGVEVHNAKTKPREEQFNSDYRVVSVLTVLHQDWLNGKEYKCKVSNKGLPSSIEKTISKAKGQPREPQVYTLPPSREEMTKNQVSLWCLVKGFYPSDIAVEWESNGQPENNYKTTPPVLDSDGSFFLYSKLTVDKSRWQQGNVFSCSVMHEALHNHYTQKSLSLSGECGGGGSGGGGSDIVMTQSPLSLPVTPGEPASISCRSTKSLLHSNGITYLYWYLQKPGQSPQLLIYQMSNLASGVPDRFSSSGSGTDFTLKISRVEAEDEGVYYCAQNLEIPRTFGGGTKLEIKRTGGGGSGGGGSGGGGSGGGGSQVQLVQSGAEVKKPGESVKISCKASGYTFTNYGMNWVRQAPGQGLKWMGWINTYTGESTYADDFKGRFAFSLDTSASTAYLQLSSLRSEDTAVYFCARFAIKGDYWGQGTLVTVSS light: DIQMTQSPSSVSASVGDRVTITCRASQGISSWLAWYQQKPGKAPKLLIYAASSLQSGVPSRFSGSGSGTDFTLTISSLQPEDFATYYCLQANSFPPTFGGGTKVEIKRTVAAPSVFIFPPSDEQLKSGTASVVCLLNNFYPREAKVQWKVDNALQSGNSQESVTEQDSKDSTYSLSSTLTLSKADYEKHKVYACEVTHQGLSSPVTKSFNRGEC
 |  | 4.98 | 0.00036 | 4.69 | 0.000323 |  | Ab#13 (bispecific antibody, Anti-c-Met Fab / tandem Fc / anti-EpCAM scFv TFcBA; also called Antibody #13) heavy: QLQLQESGPGLVKPSETLSLTCTVSGGSISSSVYYWSWIRQPPGKGLEWIGVIYPSGNTYYSPSLKSRVTISVDTSKNQFSLKLSSVTAADTAVYYCARTIYDLFDIWGQGTMVTVSSASTKGPSVFPLAPSSKSTSGGTAALGCLVKDYFPEPVTVSWNSGALTSGVHTFPAVLQSSGLYSLSSVVTVPSSSLGTQTYICNVNHKPSNTKVDKKVEPKSCDKTHTCPSCPAPEFLGGPSVFLFPPKPKDTLMISRTPEVTCVVVDVSQEDPEVQFNWYVDGVEVHNAKTKPREEQFNSKYRVVSVLTVLHQDWLNGKEYKCKVSNKGLPSSIEKTISKAKGQPREPQVYTLPPSREEMTKNQVSLSCAVKGFYPSDIAVEWESNGQPENNYKTTPPVLDSDGSFFLVSKLTVDKSRWQQGNVFSCSVMHEALHNHYTQKSLSLSKSCDKTGGGGSGGGGSGGGGSGGGGSGGGGSGGGGSGGGGSGGGGSCPSCPAPEFLGGPSVFLFPPKPKDTLMISRTPEVTCVVVDVSQEDPEVQFNWYVDGVEVHNAKTKPREEQFNSDYRVVSVLTVLHQDWLNGKEYKCKVSNKGLPSSIEKTISKAKGQPREPQVYTLPPSREEMTKNQVSLWCLVKGFYPSDIAVEWESNGQPENNYKTTPPVLDSDGSFFLYSKLTVDKSRWQQGNVFSCSVMHEALHNHYTQKSLSLSGECGGGGSGGGGSDIVMTQSPSSLSASVGDKATITCRSTKSLLHSNGITYLYWYLQKPGKAPKLLIYQMSNLASGVPDRFSSSGSGTEFTLTISSVQPEDEGTYYCAQNLEIPRTFGQGTKLEIKRTPSHNSHQVPSAGGPTANSGTSGSQVQLQQSGGGLVKPGESVKISCAASGYTFTNYGMNWVKQAPGKGLKWMGWINTYTGESTYADDFKGRFTFSLETSASAAYLQINSLRPEDTAVYFCARFAIKGDYWGQGTTVTVSS light: DIQMTQSPSSVSASVGDRVTITCRASQGISSWLAWYQQKPGKAPKLLIYAASSLQSGVPSRFSGSGSGTDFTLTISSLQPEDFATYYCLQANSFPPTFGGGTKVEIKRTVAAPSVFIFPPSDEQLKSGTASVVCLLNNFYPREAKVQWKVDNALQSGNSQESVTEQDSKDSTYSLSSTLTLSKADYEKHKVYACEVTHQGLSSPVTKSFNRGEC
 |  |  |  |  |  | 0.9 | Onartuzumab-39EGY4-cetuximab (bispecific antibody, Anti-c-Met Fab / TFc 39E glycoform 4 / anti-EGFR cetuximab scFv) heavy: EVQLVESGGGLVQPGGSLRLSCAASGYTFTSYWLHWVRQAPGKGLEWVGMIDPSNSDTRFNPNFKDRFTISADTSKNTAYLQMNSLRAEDTAVYYCATYRSYVTPLDYWGQGTLVTVSSASTKGPSVFPLAPSSKSTSGGTAALGCLVKDYFPEPVTVSWNSGALTSGVHTFPAVLQSSGLYSLSSVVTVPSSSLGTQTYICNVNHKPSNTKVDKKVEPKSCDKTHTCPSCPAPEFLGGPSVFLFPPKPKDTLMISRTPEVTCVVVDVSQEDPEVQFNWYVDGVEVHNAKTKPREEQFNSKYRVVSVLTVLHQDWLNGKEYKCKVSNKGLPSSIEKTISKAKGQPREPQVYTLPPSREEMTKNQVSLSCAVKGFYPSDIAVEWESNGQPENNYKTTPPVLDSDGSFFLVSKLTVDKSRWQQGNVFSCSVMHEALHNHYTQKSLSLSKSCDKTGGGGSGGGGSGGGGSGGGGSGGGGSGGGGSGGGGSGGGGSCPSCPAPEFLGGPSVFLFPPKPKDTLMISRTPEVTCVVVDVSQEDPEVQFNWYVDGVEVHNAKTKPREEQFNSDYRVVSVLTVLHQDWLNGKEYKCKVSNKGLPSSIEKTISKAKGQPREPQVYTLPPSREEMTKNQVSLWCLVKGFYPSDIAVEWESNGQPENNYKTTPPVLDSDGSFFLYSKLTVDKSRWQQGNVFSCSVMHEALHNHYTQKSLSLSGECGGGGSGGGGSQVQLVESGGGVVQPGESLRISCAVSGFSLTNYGVHWVRQAPGKGLEWLGVIWSGGNTDYNTPFTSRLTISKDNSKSTVYFQMNSLRAEDTAVYYCARALTYYDYEFAYWGQGTLVTVSSASTGGGGSGGGGSGGGGSGGGGSDIVLTQSPSSLSVTPGEKVTFTCRASQSIGTNIHWYQQKPGQSPKLLIKYASESISGVPSRFSGSGSGTDFTLTINSVEAEDAATYYCQQNNNWPTTFGQGTKLEIK light: DIQMTQSPSSLSASVGDRVTITCKSSQSLLYTSSQKNYLAWYQQKPGKAPKLLIYWASTRESGVPSRFSGSGSGTDFTLTISSLQPEDFATYYCQQYYAYPWTFGQGTKVEIKRTVAAPSVFIFPPSDEQLKSGTASVVCLLNNFYPREAKVQWKVDNALQSGNSQESVTEQDSKDSTYSLSSTLTLSKADYEKHKVYACEVTHQGLSSPVTKSFNRGEC
 |  |  |  |  |  | 1.6 | Onartuzumab-39EGY4-panitumumab (bispecific antibody, Anti-c-Met Fab / TFc 39E glycoform 4 / anti-EGFR panitumumab scFv) heavy: EVQLVESGGGLVQPGGSLRLSCAASGYTFTSYWLHWVRQAPGKGLEWVGMIDPSNSDTRFNPNFKDRFTISADTSKNTAYLQMNSLRAEDTAVYYCATYRSYVTPLDYWGQGTLVTVSSASTKGPSVFPLAPSSKSTSGGTAALGCLVKDYFPEPVTVSWNSGALTSGVHTFPAVLQSSGLYSLSSVVTVPSSSLGTQTYICNVNHKPSNTKVDKKVEPKSCDKTHTCPSCPAPEFLGGPSVFLFPPKPKDTLMISRTPEVTCVVVDVSQEDPEVQFNWYVDGVEVHNAKTKPREEQFNSKYRVVSVLTVLHQDWLNGKEYKCKVSNKGLPSSIEKTISKAKGQPREPQVYTLPPSREEMTKNQVSLSCAVKGFYPSDIAVEWESNGQPENNYKTTPPVLDSDGSFFLVSKLTVDKSRWQQGNVFSCSVMHEALHNHYTQKSLSLSKSCDKTGGGGSGGGGSGGGGSGGGGSGGGGSGGGGSGGGGSGGGGSCPSCPAPEFLGGPSVFLFPPKPKDTLMISRTPEVTCVVVDVSQEDPEVQFNWYVDGVEVHNAKTKPREEQFNSDYRVVSVLTVLHQDWLNGKEYKCKVSNKGLPSSIEKTISKAKGQPREPQVYTLPPSREEMTKNQVSLWCLVKGFYPSDIAVEWESNGQPENNYKTTPPVLDSDGSFFLYSKLTVDKSRWQQGNVFSCSVMHEALHNHYTQKSLSLSGECGGGGSGGGGSQVQLQESGPGLVKPSETLSLTCTVSGGSVSSGDYYWTWIRQSPGKGLEWIGHIYYSGNTNYNPSLKSRLTISIDTSKTQFSLKLSSVTAADTAIYYCVRDRVTGAFDIWGQGTMVTSSASTGGGGSGGGGSGGGGSGGGGSDIQMTQSPSSLSASVGDRVTITCQASQDISNYLNWYQQKPGKAPKLLIYDASNLETGVPSRFSGSGSGTDFTFTISSLQPEDEATYFCQHFDHLPLAFGGGTKVEIKRT light: DIQMTQSPSSLSASVGDRVTITCKSSQSLLYTSSQKNYLAWYQQKPGKAPKLLIYWASTRESGVPSRFSGSGSGTDFTLTISSLQPEDFATYYCQQYYAYPWTFGQGTKVEIKRTVAAPSVFIFPPSDEQLKSGTASVVCLLNNFYPREAKVQWKVDNALQSGNSQESVTEQDSKDSTYSLSSTLTLSKADYEKHKVYACEVTHQGLSSPVTKSFNRGEC
 |  |  |  |  |  | 1.2 | Onartuzumab (antibody) chain 1: not shown chain 2: DIQMTQSPSSLSASVGDRVTITCKSSQSLLYTSSQKNYLAWYQQKPGKAPKLLIYWASTRESGVPSRFSGSGSGTDFTLTISSLQPEDFATYYCQQYYAYPWTFGQGTKVEIKRTVAAPSVFIFPPSDEQLKSGTASVVCLLNNFYPREAKVQWKVDNALQSGNSQESVTEQDSKDSTYSLSSTLTLSKADYEKHKVYACEVTHQGLSSPVTKSFNRGEC chain 3: not shown
